For one substance, Dcvm/Dpbs results are on record in PMC4928780.

The target of this experiment is mucins in cell-free regions of human cervicovaginal mucus (CVM) (human (endogenous in cervicovaginal mucus)). Description: FRAP (fluorescence recovery after photobleaching); labeled exogenous IgG (0.1–1.5 mg/mL final) stirred into 10 μL of fresh pH-neutralized (pH 6.8–7.1) human CVM, 1 hr at 37°C; about 10 μm x 10 μm ROIs in cell-free regions; recovery half-time against PBS (Dcvm/Dpbs); 7–9 repeats.

In the case of “Human intravenous immunoglobulin (IVIG), FITC-labeled (antibody)”, the Dcvm/Dpbs was 0.8.
